In series [1] the target is POLE1 ISC mutant;POLE2;POLE3;POLE4 (human;human;human;human, UniProt Q07864;P56282;Q9NRF9;Q9NR33 1-2286;1-527;1-147;1-117, C651S;C654S|||). The series is described as follows: EMSA; EMSA: 30 nM DNA, 30-120 nM protein; protein dilution buffer 25 mM Hepes pH 7.5, 100 mM NaCl, 10% glycerol, 0.5 mM EDTA, 1 mM DTT, 0.01% NP-40; 5x reaction buffer 175 mM Hepes pH 7.4, 100 mM NaCl, 10 mM DTT, 500 ug/ml BSA; on ice 20 min (legends: 15 min); native TBE gel at 4 C. To be noted: protein: recombinant;recombinant;recombinant;recombinant, tags: N-terminal streptavidin tag;;;, copies: 1;1;1;1.
Sequence of POLE1 ISC mutant;POLE2;POLE3;POLE4 (Q07864 whole entry C651S/C654S, chain 1 of 4): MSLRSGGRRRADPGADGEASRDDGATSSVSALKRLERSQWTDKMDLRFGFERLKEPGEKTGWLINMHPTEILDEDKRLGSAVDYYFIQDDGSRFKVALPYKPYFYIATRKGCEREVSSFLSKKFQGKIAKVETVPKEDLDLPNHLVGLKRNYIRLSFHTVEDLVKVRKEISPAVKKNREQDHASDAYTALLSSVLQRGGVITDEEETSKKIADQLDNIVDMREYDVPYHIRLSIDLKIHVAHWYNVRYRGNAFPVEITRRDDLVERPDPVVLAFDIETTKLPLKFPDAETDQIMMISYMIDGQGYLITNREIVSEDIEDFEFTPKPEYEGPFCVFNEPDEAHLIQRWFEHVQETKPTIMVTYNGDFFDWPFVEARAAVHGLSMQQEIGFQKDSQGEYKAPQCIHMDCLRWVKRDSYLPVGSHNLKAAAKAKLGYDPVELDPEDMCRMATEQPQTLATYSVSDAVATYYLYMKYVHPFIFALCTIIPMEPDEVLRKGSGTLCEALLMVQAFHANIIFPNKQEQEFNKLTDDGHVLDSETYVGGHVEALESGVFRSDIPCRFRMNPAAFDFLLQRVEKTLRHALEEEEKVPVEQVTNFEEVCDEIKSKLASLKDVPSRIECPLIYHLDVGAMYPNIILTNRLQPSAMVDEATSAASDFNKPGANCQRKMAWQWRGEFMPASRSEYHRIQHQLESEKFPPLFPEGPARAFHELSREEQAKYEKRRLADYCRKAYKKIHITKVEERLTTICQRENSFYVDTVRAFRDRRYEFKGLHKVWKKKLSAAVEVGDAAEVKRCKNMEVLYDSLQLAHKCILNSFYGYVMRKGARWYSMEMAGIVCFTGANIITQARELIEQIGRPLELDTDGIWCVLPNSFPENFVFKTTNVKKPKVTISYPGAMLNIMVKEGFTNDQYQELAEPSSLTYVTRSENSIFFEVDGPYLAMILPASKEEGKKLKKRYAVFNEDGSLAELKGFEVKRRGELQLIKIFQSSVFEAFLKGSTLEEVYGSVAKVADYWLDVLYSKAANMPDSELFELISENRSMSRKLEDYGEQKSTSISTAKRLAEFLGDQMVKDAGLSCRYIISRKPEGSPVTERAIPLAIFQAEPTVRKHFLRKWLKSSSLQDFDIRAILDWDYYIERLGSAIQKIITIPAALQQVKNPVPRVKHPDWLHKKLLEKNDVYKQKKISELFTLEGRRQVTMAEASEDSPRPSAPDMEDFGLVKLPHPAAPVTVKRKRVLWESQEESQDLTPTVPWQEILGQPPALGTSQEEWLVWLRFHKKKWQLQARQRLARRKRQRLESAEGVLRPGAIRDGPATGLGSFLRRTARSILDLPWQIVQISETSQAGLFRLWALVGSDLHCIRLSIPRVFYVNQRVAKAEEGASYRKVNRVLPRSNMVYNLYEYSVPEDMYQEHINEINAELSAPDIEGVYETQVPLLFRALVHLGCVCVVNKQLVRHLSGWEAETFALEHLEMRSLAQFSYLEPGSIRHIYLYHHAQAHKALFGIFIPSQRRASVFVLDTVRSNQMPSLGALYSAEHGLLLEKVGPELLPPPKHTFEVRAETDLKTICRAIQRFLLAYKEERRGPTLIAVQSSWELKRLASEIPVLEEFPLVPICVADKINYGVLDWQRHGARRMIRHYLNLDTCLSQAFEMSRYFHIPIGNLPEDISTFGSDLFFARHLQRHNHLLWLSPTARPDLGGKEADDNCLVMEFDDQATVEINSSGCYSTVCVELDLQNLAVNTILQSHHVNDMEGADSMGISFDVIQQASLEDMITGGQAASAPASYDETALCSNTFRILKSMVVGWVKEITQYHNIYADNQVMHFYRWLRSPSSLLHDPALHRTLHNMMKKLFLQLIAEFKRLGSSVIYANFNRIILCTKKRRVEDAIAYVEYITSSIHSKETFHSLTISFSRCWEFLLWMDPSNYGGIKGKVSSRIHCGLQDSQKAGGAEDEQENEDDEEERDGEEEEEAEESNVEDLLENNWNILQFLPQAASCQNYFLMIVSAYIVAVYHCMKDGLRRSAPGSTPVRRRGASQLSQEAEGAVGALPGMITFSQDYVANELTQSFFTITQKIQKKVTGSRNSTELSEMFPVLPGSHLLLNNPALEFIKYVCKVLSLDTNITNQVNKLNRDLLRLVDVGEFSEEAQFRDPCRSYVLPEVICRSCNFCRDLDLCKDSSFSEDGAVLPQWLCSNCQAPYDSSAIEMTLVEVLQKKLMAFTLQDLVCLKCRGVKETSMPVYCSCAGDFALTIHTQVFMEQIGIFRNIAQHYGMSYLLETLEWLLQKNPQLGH
Sequence of POLE1 ISC mutant;POLE2;POLE3;POLE4 (P56282 whole entry, stated change not applied, chain 2 of 4): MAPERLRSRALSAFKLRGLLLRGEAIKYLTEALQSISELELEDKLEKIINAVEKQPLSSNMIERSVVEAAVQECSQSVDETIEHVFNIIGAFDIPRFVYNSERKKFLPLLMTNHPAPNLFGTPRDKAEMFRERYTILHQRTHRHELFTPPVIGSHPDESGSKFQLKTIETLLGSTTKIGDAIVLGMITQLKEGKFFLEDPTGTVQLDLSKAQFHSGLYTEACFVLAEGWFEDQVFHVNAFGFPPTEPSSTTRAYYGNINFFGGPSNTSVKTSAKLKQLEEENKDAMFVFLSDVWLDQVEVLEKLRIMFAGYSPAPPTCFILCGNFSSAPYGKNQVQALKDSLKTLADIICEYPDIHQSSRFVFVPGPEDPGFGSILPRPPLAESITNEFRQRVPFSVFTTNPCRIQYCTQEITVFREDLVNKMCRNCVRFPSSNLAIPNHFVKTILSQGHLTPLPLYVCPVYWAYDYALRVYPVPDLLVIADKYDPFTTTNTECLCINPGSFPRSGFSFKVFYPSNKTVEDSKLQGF
Sequence of POLE1 ISC mutant;POLE2;POLE3;POLE4 (Q9NRF9 whole entry, stated change not applied, chain 3 of 4): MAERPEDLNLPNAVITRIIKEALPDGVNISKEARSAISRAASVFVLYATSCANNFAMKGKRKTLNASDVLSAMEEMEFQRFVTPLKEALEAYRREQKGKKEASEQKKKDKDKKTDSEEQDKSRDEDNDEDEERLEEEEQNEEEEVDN
Sequence of POLE1 ISC mutant;POLE2;POLE3;POLE4 (Q9NR33 whole entry, stated change not applied, chain 4 of 4): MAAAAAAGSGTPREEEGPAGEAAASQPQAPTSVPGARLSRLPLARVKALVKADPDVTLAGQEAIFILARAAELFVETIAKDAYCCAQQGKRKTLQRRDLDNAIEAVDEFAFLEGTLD

Series [2] addresses T1, POLE1 (Pol epsilon catalytic subunit);POLE2;POLE3;POLE4 DNA binding mutant (DB/DBM) (human;human;human;human, UniProt Q07864;P56282;Q9NRF9;Q9NR33 1-2286;1-527;1-147;1-117, |||A44L;R45D;K47E;K51E). In words: EMSA; binding abolished; EMSA: 30 nM DNA, 30-120 nM protein; protein dilution buffer 25 mM Hepes pH 7.5, 100 mM NaCl, 10% glycerol, 0.5 mM EDTA, 1 mM DTT, 0.01% NP-40; 5x reaction buffer 175 mM Hepes pH 7.4, 100 mM NaCl, 10 mM DTT, 500 ug/ml BSA; on ice 20 min (legends: 15 min); native TBE gel at 4 C. Particulars: protein: recombinant;recombinant;recombinant;recombinant; tags: N-terminal streptavidin tag;;;; copies: 1;1;1;1; label: 5' 6FAM on strand 1; blunt. In general terms: A gel shift assay detects complexes by their altered migration in electrophoresis.

The target of series [3] is POLE1 (Pol epsilon catalytic subunit);POLE2 (human;human, UniProt Q07864;P56282 1-2286;1-527, |). In words: EMSA; without POLE3-POLE4; EMSA: 30 nM DNA, 30-120 nM protein; protein dilution buffer 25 mM Hepes pH 7.5, 100 mM NaCl, 10% glycerol, 0.5 mM EDTA, 1 mM DTT, 0.01% NP-40; 5x reaction buffer 175 mM Hepes pH 7.4, 100 mM NaCl, 10 mM DTT, 500 ug/ml BSA; on ice 20 min (legends: 15 min); native TBE gel at 4 C. To be noted: protein: recombinant;recombinant; tags: N-terminal streptavidin tag;; copies: 1;1; label: 5' 6FAM.
Sequence of POLE1 (Pol epsilon catalytic subunit);POLE2 (Q07864 whole entry, chain 1 of 2): as the sequence (Q07864 whole entry C651S/C654S, chain 1 of 4) above, with S651C, S654C counted along it
Sequence of POLE1 (Pol epsilon catalytic subunit);POLE2 (P56282 whole entry, chain 2 of 2): as the sequence (P56282 whole entry, stated change not applied, chain 2 of 4) above

Series [4] deals with T1, POLE1 (Pol epsilon catalytic …). In words: EMSA; EMSA: 30 nM DNA, 30-120 nM protein; protein dilution buffer 25 mM Hepes pH 7.5, 100 mM NaCl, 10% glycerol, 0.5 mM EDTA, 1 mM DTT, 0.01% NP-40; 5x reaction buffer 175 mM Hepes pH 7.4, 100 mM NaCl, 10 mM DTT, 500 ug/ml BSA; on ice 20 min (legends: 15 min); native TBE gel at 4 C. Particulars: protein: recombinant;recombinant;recombinant;recombinant; tags: N-terminal streptavidin tag;;;; copies: 1;1;1;1; label: 5' 6FAM.

T1 sequence (Q07864 whole entry, stated change not applied, chain 1 of 4): as the sequence (Q07864 whole entry C651S/C654S, chain 1 of 4) above, with S651C, S654C counted along it
T1 sequence (P56282 whole entry, stated change not applied, chain 2 of 4): as the sequence (P56282 whole entry, stated change not applied, chain 2 of 4) above
T1 sequence (Q9NRF9 whole entry, stated change not applied, chain 3 of 4): as the sequence (Q9NRF9 whole entry, stated change not applied, chain 3 of 4) above
T1 sequence (Q9NR33 whole entry A44L/R45D/K47E/K51E, chain 4 of 4): as the sequence (Q9NR33 whole entry, stated change not applied, chain 4 of 4) above, with A44L, R45D, K47E, K51E counted along it

B1: EMSA dsDNA 49 bp (dsDNA)
DNA 1: AGCTACCATGCCTGCACGAATTAAGCAATTCGTAATCATGGTCATAGCT
DNA 2: AGCTATGACCATGATTACGAATTGCTTAATTCGTGCAGGCATGGTAGCT
With B1, the binding result is “binds” in series [1] (label: 5' 6FAM on strand 1, blunt) and “no binding” in series [2].

For AGCTACCATGCCTGCACGAATTAAGCAATTCGTAATCATGGTCATAGCT (ssDNA) [EMSA ssDNA 49-mer], the binding result in series [3], in series [4] and in series [1] (label: 5' 6FAM) was “binds” in each case.

B2: EMSA leading strand fork (dsDNA)
DNA 1: AGCTACCATGCCTGCACGAATTAAGCAATTCGTAATCATGGTCATAGCT
DNA 2: CTACAGTTCGTCAGGATTCC
DNA 3: AGCTATGACCATGATTACGAATTGCTTGGAATCCTGACGAACTGTAG
In the case of B2, the binding result in series [1] (label: 5' 6FAM on strand 1, fork 1:3 (27 bp) 2:3 (20 bp), 22 nt 5' flap on strand 1) is listed as “binds”.

(Values after paper PMC12796321, “The genetic and biochemical basis of human leading strand synthesis”.)
